These results are taken from patent publication US20040105862A1 (published 2004).

Numbering of substitutions follows the chain as printed. Read-outs that look alike come from different tables or passages of the source.

Experiment [1] has as its target T1, rat TIMP-1 (rat, UniProt P30120 24-217). Nature of the experiment: cell-based or functional assay.
Experiment [2] addresses T2, human TIMP-1 (human, UniProt P01033 24-207).
T2 construct: Immobilised on BIAcore chip or ELISA plate; in solution in the protease assay
Nature of the experiment: BIAcore SPR, Fab, monovalent fit. (In general: SPR reads the build-up and loss of mass on a sensor chip optically.)

The target in experiment [3] is T2, human TIMP-1. Nature of the experiment: BIAcore SPR, Fab, monovalent fit. This is another data set of the same source.
Experiment [4] addresses T2, human TIMP-1. Kind of experiment: cell-based or functional assay.
In experiment [5] the target is T1, rat TIMP-1. Nature of the experiment: BIAcore SPR, Fab.
In experiment [6] the target is T1, rat TIMP-1. Kind of experiment: cell-based or functional assay. The source holds these as a separate data set.
Experiment [7] addresses T2, human TIMP-1. Kind of experiment: cell-based or functional assay. The source holds these as a separate data set.
The target in experiment [8] is T2, human TIMP-1. Kind of experiment: cell-based or functional assay. This is another data set of the same source.
For experiment [9], the target named is T2, human TIMP-1. Nature of the experiment: BIAcore SPR, Fab.

T1 sequence (P30120 24-217 limits assumed): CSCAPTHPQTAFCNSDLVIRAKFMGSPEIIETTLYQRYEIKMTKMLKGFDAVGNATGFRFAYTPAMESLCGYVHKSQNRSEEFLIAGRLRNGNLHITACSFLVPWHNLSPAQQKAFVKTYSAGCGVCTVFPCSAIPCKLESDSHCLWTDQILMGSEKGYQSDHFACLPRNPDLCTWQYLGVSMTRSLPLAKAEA

B1: MS-BW-63 (Fab, V domains shown)
VH: QVQLVQSGAEVKKPGESLKISCKGSGYSFTSYWIGWVRQMPGKGLEWMGIIYPGDSDTRYSPSFQGQVTISADKSISTAYLQWSSLKASDTAMYYCARILTGHVLLFDYWGQGTLVTVSS
VL: DIALTQPASVSGSPGQSITISCTGTSSDVGGYNYVSWYQQHPGKAPKLMIYDVSNRPSGVSNRFSGSKSGNTASLTISGLQAEDEADYYCQSDNPYLVFGGGTKLTVLG
As for B1, in the experiment with rat TIMP-1 [1], the “IC50 in rat protease assay” value came to 20000 µM.

B2: MS-BW-3 (Fab, V domains shown)
VH: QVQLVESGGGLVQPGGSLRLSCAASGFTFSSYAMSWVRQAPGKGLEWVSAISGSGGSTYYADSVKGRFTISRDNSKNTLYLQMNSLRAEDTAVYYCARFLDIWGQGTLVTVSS
VL: DIALTQPASVSGSPGQSITISCTGTSSDVGGYNYVSWYQQHPGKAPKLMIYDVSNRPSGVSNRFSGSKSGNTASLTISGLQAEDEADYYCQSYDFLRFSVFGGGTKLTVL
With B2, the dissociation constant (Kd) with human TIMP-1 [2] and with human TIMP-1 [3] was 0.013 µM in each case. Besides, in the experiment with human TIMP-1 [4], the “IC50 in human protease assay” value was 0.011 µM.

B3: MS-BW-17-1 Fab (Fab, V domains shown)
VH: QVQLVQSGAEVKKPGESLKISCKGSGYSFTSYWIGWVRQMPGKGLEWMGIIYPGDSDTRYSPSFQGQVTISADKSISTAYLQWSSLKASDTAMYYCARLTNYFDSIYYDHWGQGTLVTVSS
VL: DIALTQPASVSGSPGQSITISCTGTSSDVGGYNYVSWYQQHPGKAPKLMIYDVSNRPSGVSNRFSGSKSGNTASLTISGLQAEDEADYYCQAFDVAPNGKVFGGGTKLTVLG
notes: Fab; LCDR3-optimised from MS-BW-17
Consider B3, for which, in the experiment with rat TIMP-1 [5], the “improvement factor (affinity) over parental clone” value is 16.3 fold.

B4: MS-BW-17-2 (Fab, V domains shown)
VH: B3 VH
VL: B3 VL with D94A, A96M, G99V, K100E
Regarding B4, in the experiment with rat TIMP-1 [6], the “improvement factor (functional activity in the protease assay) over parental clone” value was determined as 10 fold.

B5: MS-BW-44 (Fab, V domains shown)
VH: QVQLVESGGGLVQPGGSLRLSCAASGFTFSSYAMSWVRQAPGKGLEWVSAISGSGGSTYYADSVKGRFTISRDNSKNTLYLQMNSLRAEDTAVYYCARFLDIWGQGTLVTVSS
VL: DIALTQPASVSGSPGQSITISCTGTSSDVGGYNYVSWYQQHPGKAPKLMIYDVSNRPSGVSNRFSGSKSGNTASLTISGLQAEDEADYYCQSYDFVRFMVFGGGTKLTVLG
As for B5, the “improvement factor (IC50) over MS-BW-3” value with human TIMP-1 [7] was determined as 2.75 fold.

B6: MS-BW-44-2-15 (Fab, V domains shown)
VH: QVQLVESGGGLVQPGGSLRLSCAASGFTFSSYAMSWVRQAPGKGLEWVSGISGNGVLIFYADSVKGRFTISRDNSKNTLYLQMNSLRAEDTAVYYCARWFDHWGQGTLVTVSS
VL: B5 VL
Turning to B6, in the experiment with human TIMP-1 [8], the “ID50 in human protease assay (modified assay)” value (from here on “ID50 in human protease assay”) amounted to 0.0002 µM.

B7: MS-BW-44-2-16 (Fab, V domains shown)
VH: B6 VH with H102V
VL: B5 VL
Regarding B7, in the experiment with human TIMP-1 [8], the “ID50 in human protease assay” value turned out to be 0.0003 µM.

B8: MS-BW-44-2-4 (Fab, V domains shown)
VH: QVQLVESGGGLVQPGGSLRLSCAASGFTFSSYAMSWVRQAPGKGLEWVSGISGNGVLIFYADSVKGRFTISRDNSKNTLYLQMNSLRAEDTAVYYCARGLMDYWGQGTLVTVSS
VL: B5 VL
As to B8, the “ID50 in human protease assay” value with human TIMP-1 [8] was 0.0002 µM.

B9: MS-BW-44-6-1 (Fab, V domains shown)
VH: B6 VH with S30N, G50V, V56S, L57N, I58T, F59Y, W99F, F100L, H102I
VL: B5 VL with V96I
Consider B9, for which the “ID50 in human protease assay” value in the experiment with human TIMP-1 [8] was 0.0002 µM.

B10: MS-BW-44-2 (Fab, V domains shown)
VH: B6 VH with W99F, F100L, H102I
VL: B5 VL
notes: Fab
Take B10: in the experiment with human TIMP-1 [9], the “affinity gain factor (Kd) over MS-BW-44” value came out at 5 fold. Moreover, the “gain factor (IC50) over MS-BW-44” value with human TIMP-1 [7] was found to be 5 fold. Further, the “ID50 in human protease assay” value in the experiment with human TIMP-1 [8] stood at 0.0004 µM.

B11: MS-BW-44-6 (Fab, V domains shown)
VH: B6 VH with S30N, G50V, V56S, L57N, I58T, F59Y, W99F, F100L, H102I
VL: B5 VL
notes: Fab
Turning to B11, the “affinity gain factor (Kd) over MS-BW-44” value in the experiment with human TIMP-1 [9] was found to be 5 fold. Also, the “gain factor (IC50) over MS-BW-44” value in the experiment with human TIMP-1 [7] worked out at 10 fold. Also, in the experiment with human TIMP-1 [8], the “ID50 in human protease assay” value came out at 0.0002 µM.

A word on the Kd: it is the concentration at which binding is half-saturated. Higher therefore signals a looser complex.
